Data from patent publication US10647739B2, “Flavonoids O-A-glucosylated on the B cycle, method for the production thereof and uses” (Institut National de la Recherche Agronomique, priority 2014, dated 2020).
Residue numbers refer to the chain shown, from its start. In names and notes the source's numbering stands. Several values for one entry are separate records, joined by “and”; a condition that tells them apart may be missing. Identical values can stand only once.

Experiments:
[1] = naringenin glucosylation acceptor reaction with recombinant glucansucrases (microplate screening); assay type: biochemical; settings: sucrose 146 mM, naringenin 5 mM, 3% DMSO, 30° C., 24 h, HPLC-UV 340 nm peak areas
Procedure: (§1) The enzymatic extracts obtained are used to carry out the flavonoid glucosylation enzymatic screening reactions. The enzymatic activity of each centrifuged cell lysate is evaluated in the microplate format, by final weight after 30 minutes incubation in the presence of a final concentration of 146 mM of sucrose, by assaying the reducing sugars with 3,5-dinitrosalicylic acid (DNS). Finally, after dilution in ultrapure water, the absorbance is read at 540 nm.
(§2) The flavonoid acceptor reactions are then carried out in deep-well microplates, in a volume of 300 μl, at final concentrations of sucrose of 146 mM and of flavonoid of 2.5 mM (apigenin) or 5 mM (naringenin) (initially dissolved in 100% DMSO), and 140 μl of centrifuged cell lysate.
(§3) The final DMSO concentration in the reaction medium is 3% (v/v).
(§4) The incubation is carried out at 30° C. and at 700 rpm. After 24 hours, the enzymes are denatured at 95° C. for 15 minutes. These microplates are stored at −80° C. with a view to rapid evaluation of the flavonoid glucosylation by liquid-phase chromatography coupled to mass spectrometry (HPLC-MS or LC-MS).
(§5) With a view to their analyses by HPLC-MS, the extensively homogenized reaction media are diluted to 1/30th in DMSO. The separation of the flavonoids and of their glucosylated forms is carried out in reverse phase with a ProntoSlL Eurobond® 53×3.0 mm 120-3-C18-AQ column (porosity of 120 Å, particle size of 3 μm, C18 grafting, Bischoff Chromatography, Germany).
(§6) The flavonoid glucosylation efficiency was determined from the following formula: Glucosylation efficiency=(Σ(area of the peak of glucosylated flavonoid(s)))/(Σ(area of the peak of glucosylated flavonoid(s))+area of the peak of residual aglycone flavonoid)×100
The flavonoid glucosylation efficiency was determined from the formula set out in example 2. The flavonoid glucosylation efficiencies, expressed as a percentage, were calculated from the areas of the peaks of the various products analyzed, as described in example 1, by HPLC with a UV detector (λ340 nm), after 24 h of reaction.

[2] = apigenin glucosylation acceptor reaction with recombinant glucansucrases (microplate screening); assay type: biochemical; settings: sucrose 146 mM, apigenin 2.5 mM, 3% DMSO, 30° C., 24 h, HPLC-UV 340 nm peak areas
Procedure: as §1, §2, §3, §4, §5, §6
The flavonoid glucosylation efficiencies, expressed as a percentage, were calculated from the areas of the peaks of the various products analyzed, as described in example 1, by HPLC with a UV detector (340 nm) after 24 h of reaction.

“α-1,2 BrS: wild-type glucansucrase α-1,2 BrS, SEQ ID NO: 11” showed a naringenin glucosylation efficiency [1] of 26.8% and an apigenin glucosylation efficiency [2] of 2.5%.

B1: ASNp WT: wild-type recombinant amylosucrase from Neisseria polysaccharea (protein, UniProt Q9ZEU2 1-636, looked up)
Amylosucrase: MLTPTQQVGLILQYLKTRILDIYTPEQRAGIEKSEDWRQFSRRMDTHFPKLMNELDSVYGNNEALLPMLEMLLAQAWQSYSQRNSSLKDIDIARENNPDWILSNKQVGGVCYVDLFAGDLKGLKDKIPYFQELGLTYLHLMPLFKCPEGKSDGGYAVSSYRDVNPALGTIGDLREVIAALHEAGISAVVDFIFNHTSNEHEWAQRCAAGDPLFDNFYYIFPDRRMPDQYDRTLREIFPDQHPGGFSQLEDGRWVWTTFNSFQWDLNYSNPWVFRAMAGEMLFLANLGVDILRMDAVAFIWKQMGTSCENLPQAHALIRAFNAVMRIAAPAVFFKSEAIVHPDQVVQYIGQDECQIGYNPLQMALLWNTLATREVNLLHQALTYRHNLPEHTAWVNYVRSHDDIGWTFADEDAAYLGISGYDHRQFLNRFFVNRFDGSFARGVPFQYNPSTGDCRVSGTAAALVGLAQDDPHAVDRIKLLYSIALSTGGLPLIYLGDEVGTLNDDDWSQDSNKSDDSRWAHRPRYNEALYAQRNDPSTAAGQIYQGLRHMIAVRQSNPRFDGGRLVTFNTNNKHIIGYIRNNALLAFGNFSEYPQTVTAHTLQAMPFKAHDLIGGKTVSLNQDLTLQPYQVMWLEIA
For B1, the naringenin glucosylation efficiency [1] was 4.7±1.7% and 4.7%, the naringenin glucosylation efficiency ([1]; listed as A289A) was 3.4% and the naringenin glucosylation efficiency ([1]; listed as D394D) was 0.0%. The naringenin glucosylation efficiency ([1]; listed as F229F) was 0.0%, the naringenin glucosylation efficiency ([1]; listed as F290F) was 0.0% and the naringenin glucosylation efficiency ([1]; listed as I228I) was 0.0%. For the same molecule, the naringenin glucosylation efficiency ([1]; listed as I330I) was 0.0%, the naringenin glucosylation efficiency ([1]; listed as R226R) was 2.5% and the naringenin glucosylation efficiency ([1]; listed as R446R) was 6.0%. For the same molecule, the naringenin glucosylation efficiency ([1]; listed as V331V) was 4.7%, the apigenin glucosylation efficiency [2] was 0.5±0.5% and 0.5% and the apigenin glucosylation efficiency ([2]; listed as A289A) was 0.6%. It also gave an apigenin glucosylation efficiency ([2]; listed as D394D) of 0.1%, an apigenin glucosylation efficiency ([2]; listed as F229F) of 0.8% and an apigenin glucosylation efficiency ([2]; listed as F290F) of 0.8%. It also gave an apigenin glucosylation efficiency ([2]; listed as I228I) of 0.8%, an apigenin glucosylation efficiency ([2]; listed as I330I) of 0.8% and an apigenin glucosylation efficiency ([2]; listed as R226R) of 0.3%. The apigenin glucosylation efficiency ([2]; listed as V331V) was 0.2%.

B2: V331L: ASNp amylosucrase single mutant (protein, UniProt Q9ZEU2 1-636, looked up, variant V331L)
Amylosucrase: B1 Amylosucrase with V331L
For B2, the naringenin glucosylation efficiency [1] was 0.0% and the apigenin glucosylation efficiency [2] was 0.3%.

B3: V331A: ASNp amylosucrase single mutant (protein, UniProt Q9ZEU2 1-636, looked up, variant V331A)
Amylosucrase: B1 Amylosucrase with V331A
With B3 the naringenin glucosylation efficiency [1] was 0.0% and the apigenin glucosylation efficiency [2] was 0.5%.

B4: V331N: ASNp amylosucrase single mutant (protein, UniProt Q9ZEU2 1-636, looked up, variant V331N)
Amylosucrase: B1 Amylosucrase with V331N
Work on B4 yielded a naringenin glucosylation efficiency [1] of 0.0% and an apigenin glucosylation efficiency [2] of 1.0%.

B5: V331M: ASNp amylosucrase single mutant (protein, UniProt Q9ZEU2 1-636, looked up, variant V331M)
Amylosucrase: B1 Amylosucrase with V331M
B5 showed a naringenin glucosylation efficiency [1] of 0.0% and an apigenin glucosylation efficiency [2] of 0.1%.

B6: DSR-S vardelΔ4N S512C: mutant of truncated DSR-S, SEQ ID NO: 10 (protein)
chain: TQQVSGKYVEKDGSWYYYFDDGKNAKGLSTIDNNIQYFYESGKQAKGQYVTIDNQTYYFDKGSGDELTGLQSIDGNIVAFNDEGQQIFNQYYQSENGTTYYFDDKGHAATGIKNIEGKNYYFDNLGQLKKGFSGVIDGQIMTFDQETGQEVSNTTSEIKEGLTTQNTDYSEHNAAHGTDAEDFENIDGYLTASSWYRPTGILRNGTDWEPSTDTDFRPILSVWWPDKNTQVNYLNYMADLGFISNADSFETGDSQSLLNEASNYVQKSIEMKISAQQSTEWLKDAMAAFIVAQPQWNETSEDMSNDHLQNGALTYVNSPLTPDANSNFRLLNRTPTNQTGEQAYNLDNSKGGFELLLANQEDNSNVVVEAEQLNWLYYLMNFGTITANDADANFDGIRVDAVDNVDADLLQIAADYFKLAYGVDQNDATANQHLSILEDWSHNDPLYVTDQGSNQLTMDDYVHTQLIWSLTKSSDIRGTMQRFVDYYMVDRSNDSTENEAIPNYSFVRAHDCEVQTVIAQIVSDLYPDVENSLAPTTEQLAAAFKVYNEDEKLADKKYTQYNMASAYAMLLTNKDTVPRVYYGDLYTDDGQYMATKSPYYDAINTLLKARVQYVAGGQSMSVDSNDVLTSVRYGKDAMTASDTGTSETRTEGIGVIVSNNAELQLEDGHTVTLHMGAAHKNQAYRALLSTTADGLAYYDTDENAPVAYTDANGDLIFTNESIYGVQNPQVSGYLAVWVPVGAQQDQDARTASDTTTNTSDKVFHSNAALDSQVIYEGFSNFQAFATDSSEYTNVVIAQNADQFKQWGVTSFQLAPQYRSSTDTSFLDSIIQNGYAFTDRYDLGYGTPTKYGTADQLRDAIKALHASGIQAIADWVPDQIYNLPEQELATVTRTNSFGDDDTDSDIDNALYVVQSRGGGQYQEMYGGAFLEELQALYPSLFKVNQISTGVPIDGSVKITEWAAKYFNGSNIQGKGAGYVLKDMGSNKYFKVVSNTEDGDYLPKQLTNDLSETGFTHDDKGIIYYTLSGYRAQNAFIQDDDNNYYYFDKTGHLVTGLQKINNHTYFFLPNGIELVKSFLQNEDGTIVYFDKKGHQVFDQYITDQNGNAYYFDDAGVMLKSGLATIDGHQQYFDQNGVQVKDKFVIGTDGYKYYFEPGSGNLAILRYVQNSKNQWFYFDGNGHAVTGFQTINGKKQYFYNDGHQSKGEFIDADGDTFYTSATDGRLVTGVQKINGITYAFDNTGNLITNQYYQLADGKYMLLDDSGRAKTGFVLQDGVLRYFDQNGEQVKDAIIVDPDTNLS
modifications: Leuconostoc mesenteroides
With B6 the naringenin glucosylation efficiency [1] was 0.0%, the apigenin glucosylation efficiency [2] was 13.9% and the apigenin glucosylation efficiency ([2]; listed as S512C) was 13.9%.
